Laboratory results as given in patent US20210155699A1.

How the values were obtained:
[1] = molecular target: EGFr in A431 cells (UniProt P00533)
[2] = molecular target: purified EGFr (Sigma) (UniProt P00533); assay: ELISA on coated purified EGFr (50 ng/well), without and with polyclonal human IgG (IVIG), both curves in the same bundle
[3] = molecular target: 2F8-HG-L236V; assay: non-covalent nano-ESI MS, 0.01-10 uM; self-dimerisation (FIG. 6)
[4] = molecular target: 2F8-HG-Y275A; assay: as above
[5] = molecular target: 2F8-HG-F273A; assay: as above

| EC50 (read off the curve) [2] [µg/mL] | Molecule | other results |
| --- | --- | --- |
| 0.08 | 2F8-HG-R277A (antibody) | IC50 (read off the curve) [1]: 3 nM |
| 0.08 | 2F8-HG-R277K (antibody) | – |
| – | 2F8-HG-L236V (antibody) | percent monomeric at low concentrations [3]: 100% |
| – | 2F8-HG-Y275A (antibody) | percent monomeric at low concentrations [4]: 100% |
| 0.08 | 2F8-HG-F273L (antibody, part only; not given: anti-EGFr VH and light chain, part only) heavy, part: ASTKGPSVFPLAPCSRSTSESTAALGCLVKDYFPEPVTVSWNSGALTSGVHTFPAVLQSSGLYSLSSVVTVPSSSLGTKTYTCNVDHKPSNTKVDKRVAPEFLGGPSVFLFPPKPKDTLMISRTPEVTCVVVDVSQEDPEVQFNWYVDGVEVHNAKTKPREEQFNSTYRVVSVLTVLHQDWLNGKEYKCKVSNKGLPSSIEKTISKAKGQPREPQVYTLPPSQEEMTKNQVSLTCLVKGFYPSDIAVEWESNGQPENNYKTTPPVLDSDGSFLLYSRLTVDKSRWQEGNVFSCSVMHEALHNHYTQKSLSLSLGK | – |
| 0.08 | 2F8-HG-F273A (antibody, part only; not given: anti-EGFr VH and light chain, part only) heavy, part: ASTKGPSVFPLAPCSRSTSESTAALGCLVKDYFPEPVTVSWNSGALTSGVHTFPAVLQSSGLYSLSSVVTVPSSSLGTKTYTCNVDHKPSNTKVDKRVAPEFLGGPSVFLFPPKPKDTLMISRTPEVTCVVVDVSQEDPEVQFNWYVDGVEVHNAKTKPREEQFNSTYRVVSVLTVLHQDWLNGKEYKCKVSNKGLPSSIEKTISKAKGQPREPQVYTLPPSQEEMTKNQVSLTCLVKGFYPSDIAVEWESNGQPENNYKTTPPVLDSDGSFALYSRLTVDKSRWQEGNVFSCSVMHEALHNHYTQKSLSLSLGK | percent monomeric at low concentrations [5]: 100% |
